# Data from article PMC7305185.
# Values joined by “and” are separate entries in the source; they are usually repeats but may differ in a detail not shown here. Identical values can stand only once.
# Biological target: His32 (UniProt position 32, AAQLPHDYCTT)
# Test: NMR
# Conditions: 20 °C; McIlvaine (phosphate-citrate) buffer with 2 mM DTT; Apo five-phospho 4E-BP2. The folded β-domain is populated at neutral pH and undergoes non-cooperative acid denaturation as pH is lowered.
substance,measurement,value
"Eukaryotic translation initiation factor 4E-binding protein 2 (4E-BP2), five-phospho form (5p-4E-BP2) (Homo sapiens (inferred; species of the construct not explicitly stated))",pKa,6.0 ± 0.2 and 5.9 ± 0.1 and 6.0 ± 0.3
